Laboratory results as given in US20250122303A1, “TREATMENT AND PREVENTION OF CANCER USING HER3 ANTIGEN-BINDING MOLECULES” (Hummingbird Bioscience Pte. Ltd., priority 2021, published 2025).

Tests used:
[1] = biological target: T1, human HER3 (HEK293 HER3 O/E cells) (Homo sapiens, UniProt P21860); assay: Cell surface antigen-binding by flow cytometry
T1 construct: expressed in transfected cells; host or cells: HEK293
Experimental: The cells were washed thrice with FACS buffer (PBS with 5 mM EDTA and 0.5% BSA) and resuspended in FITC-conjugated anti-FC antibody (Invitrogen, USA) for 40 min at 2-8° C. Cells were washed again and resuspended in 200 μL of FACS flow buffer (PBS with 5 mM EDTA) for flow cytometric analysis using MACSQuant 10 (Miltenyi Biotec, Germany). After acquisition, all raw data were analyzed using Flowlogic software. Cells were gated using forward and side scatter profile percentage of positive cells was determined for native and overexpressing cell populations.
The cells were washed with buffer (PBS with 2 mM EDTA and 0.5% BSA) and resuspended in FITC-conjugated anti-FC antibody (Invitrogen, USA) at 10 μg/ml for 20 min at 4° C. Cells were washed again and resuspended in 200 μL of FACS flow buffer (PBS with 5 mM EDTA) for flow cytometric analysis using MACSQuant 10 (Miltenyi Biotec, Germany). Unstained WT and transfected HEK293 cells were included in the analysis as negative controls. After acquisition, all raw data were analyzed using Flowlogic software. Cells were gated using forward and side scatter profile percentage of positive cells was determined for native and overexpressing cell populations.

[2] = biological target: human HER3:human NRG1 complex (Homo sapiens, UniProt P21860); assay: BLI binding to HER3-NRG1 complex ('open' conformation); settings: presence of NRG1 (1:1 molar ratio)
Experimental: (§1) In further experiments, anti-HER3 antibodies were analysed in order to determine the affinity of binding to human HER3 in the context of a human HER3:human NRG1 complex (that is, HER3 provided in the ligand-bound, ‘open’ conformation), as compared to the affinity of binding to human HER3 in the absence of NRG1 complex (that is, HER3 provided in the unbound, ‘closed’ conformation).
(§2) Binding of anti-HER3 antibodies to human HER3 was evaluated by BLI. Briefly, anti-Human IgG Capture (AHC) sensors (ForteBio) were loaded with anti-HER3 IgG antibodies (25 nM). Kinetic measurements were performed in absence or presence of NRG1. NRG1 was used at 1:1 molar ratio with HER3 wherein the complex was allowed to form at RT for 2 h. His-tagged human HER3 or HER3-NRG1 complexes were loaded to antibody coated AHC sensors at different concentrations for 120 s, followed by a 120 s dissociation time. All measurements were performed at 25° C. with agitation at 1000 rpm. Sensorgrams were referenced for buffer effects and then analyzed using the Octet QK384-software (ForteBio). Kinetic responses were globally fitted using a one-site binding model to obtain values for association (Kon), dissociation (Koff) rate constants and the equilibrium dissociation constant (KD).

[3] = cited from earlier work
[4] = tested on: HEK293 HER3, HCC95, N87 and OVCAR8 cells; assay: Antibody internalisation, pHrodo imaging; format: cell-based, human; settings: 24 hours
Experimental: Briefly, 100,000 HEK293 cells engineered to express HER3, HCC95, N87 or OVCAR8 cells were seeded in wells of 96-well tissue culture plates and cultured overnight at 37° C. in 5% CO2. […] The cells in culture were imaged every 30 min for 24 hours, in 4 different fields of each well. The maximum signal intensity in the FITC channel of each field was quantified at 24 hours.

[5] = clinical, literature, cited from earlier work
[6] = biological target: hHER3 (Homo sapiens, UniProt P21860); assay: BLI binding to HER3 in absence of NRG1 ('closed' conformation)
Experimental: as §1, §2

Substance | extent of binding to human HER3-expressing cells ([1]; 10 μg/ml antibody) | extent of binding to human HER3-expressing cells ([1]; 20 μg/ml antibody) | affinity of binding to human HER3 [2] | gastrointestinal toxicity DLTs ([3]; human, in vivo) | hypokalaemia and hypomagnesemia DLTs ([3]; in the presence of diarrhoea) | internalization ([4]; HEK293 cells overexpressing HER3, 120 nM) | internalization ([4]; OvCar8 cells, 120 nM) | Dose where Saturating PK was observed [5] | T½ (terminal half life) [5] | Cmax (μg/ml) normalised to per mg/kg dosed [5] | affinity of binding to human HER3 [6]
LJM716: anti-HER3 antibody binding domains II and IV, locks HER3 in inactive conformation (Garner et al.) [reference compound] | bind to human HER3-expressing cells to a similar extent | bind to human HER3-expressing cells to a similar extent | dramatically reduced | DLTs were reported | DLTs were reported | significant internalization | Modest to moderate internalization | 10 to 40 mg/kg | 220 to 336 h | 19 to 22 µg/mL | subpicomolar affinity
RG7116 | – | – | – | – | – | – | – | 400 to 2000 mg | 220 to 288 h | 24 to 41 µg/mL | –
